This series has as its target T1, GlaR (YugA) (Lactococcus lactis IL1403) (UniProt Q7DAT6).
T1 sequence: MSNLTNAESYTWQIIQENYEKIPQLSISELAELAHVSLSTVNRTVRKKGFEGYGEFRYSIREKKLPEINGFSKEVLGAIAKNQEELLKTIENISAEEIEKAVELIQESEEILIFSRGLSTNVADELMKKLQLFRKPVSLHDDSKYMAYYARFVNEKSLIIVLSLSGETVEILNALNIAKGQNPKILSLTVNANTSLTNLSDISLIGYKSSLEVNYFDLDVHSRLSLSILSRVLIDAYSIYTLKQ
Briefly: EMSA. To be noted: EMSA: 1 nM DNA, 10 mM Tris-HCl pH 8.5, 10 mM MgCl2, 100 mM KCl, 0.1 mg/ml BSA (printed as 10x binding buffer), 250 mM galactose, 20 ul, 20 min at 37 C; 5% PAGE …. Background: In EMSA bound probe runs differently from free probe, usually more slowly.

“GGACATTGGCATCTACTTGAAGAAGAAGCAGGAACATGGTTAAATATTGACGGATTCCATATGGGTGTAGGTGGAGATGATTCATGGAGTCCAAGTGTCGCTCAGGAATATTTATTGACAAAGGGAAATTATCATTATGAAGTTAGTTTTAAATTAACGTGATGATCCAAATTTTCAAGAATTTGATATAATATAGAGAAAATGGAGGTTCTTATGACGGTTTTAGTTCTTGGTGGAGCAGGATACGTGGGAAGTCACGCGGTAGATATGCTTCTTAAACGTGGTTACGATGTGGCAG (double strand) [galE upstream region]”: the binding result is given as “no binding”.

With “CCATTACATTTTCATGACGATTACATACAAAAAAAGCTCAAAAATTTGAGCTTTTTTTTTCGAATTTTAGATAATTAACTAGTAACCTTTTGGATGACTTTGGTGCCATTTCCAAGCGTTCGTAATAATGTGCTCTAAATCATTTTGTGCTTTCCAACCCAAAATTTCACCAGCTTTTGTTGAATCAGCAACCAGCTCATCTGGGTCTCCTGCACGGCGTTCACCCATTTGGCTTGGAATTTCTTTACCTGTTACTTTTCGTGCGGTTTCAAGCACTTCAAG (double strand)”, the binding result is “no binding”.
